Measured values as given in the supplement of paper PMC10567573.

B1: KRT71 (parent)
chain: ELRNVQDVVEDYKKRYEEEINKRT

Variants of: B1
Experiment: protein stability index of a GFP-peptide fusion (GPS, HEK-293T) (PSI 1-6); higher = more stable
Conditions: c terminus: a fixed tail appended
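Note: lentivirally expressed fusions sorted by FACS into six bins by GFP to DsRed ratio, PSI derived from sequencing read proportions per bin multiplied by bin number.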

| Variant | protein stability index |
| --- | --- |
| ELRNVQDVVEDYAKRYEEEINKRT | 4.07 |
| ELRNVQDVVEDYIKRYEEEINKRT | 3.27 |
| ELRNVQDVVEDYFKRYEEEINKRT | 4.07 |
| ELRNVQDVVEDYMKRYEEEINKRT | 3.12 |
| ELRNVQDVVEDYVKRYEEEINKRT | 3.25 |
| ELRNVQDVVEDYYKRYEEEINKRT | 3.2 |
| ELRNVQDVVEDYCKRYEEEINKRT | 2.71 |
| ELRNVQDVVEDYGKRYEEEINKRT | 3.93 |
| ELRNVQDVVEDYEKRYEEEINKRT | 4.74 |
| ELRNVQDVVEDYNKRYEEEINKRT | 3.34 |
| ELRNVQDVVEDYRKRYEEEINKRT | 4.62 |
| ELRNVQDVVEDYPKRYEEEINKRT | 2.97 |
| ELRNVQDVVEDYWKRYEEEINKRT | 3.34 |
| ELRNVQDVVEDYQKRYEEEINKRT | 3.71 |
| ELRNVQDVVEDYSKRYEEEINKRT | 3.51 |
| ELRNVQDVVEDYHKRYEEEINKRT | 3.73 |
| ELRNVQDVVEDYKKREEEEINKRT | 4.33 |
| ELRNVQDVVEDYKKRFEEEINKRT | 2.96 |
| ELRNVQDVVEDYKKRDEEEINKRT | 4.38 |
| ELRNVQDVVEDYKKRTEEEINKRT | 3.89 |
| ELRNVQDVVEDYKKRCEEEINKRT | 3.51 |
| ELRNVQDVVEDYKKRVEEEINKRT | 3.76 |
| ELRNVQDVVEDYKKRNEEEINKRT | 4.1 |
| ELRNVQDVVEDYKKRQEEEINKRT | 3.52 |

| Variant | protein stability index |
| --- | --- |
| ELRNVQDVVEDYKKRGEEEINKRT | 2.71 |
| ELRNVQDVVEDYKKRAEEEINKRT | 4.43 |
| ELRNVQDVVEDYKKRKEEEINKRT | 3.75 |
| ELRNVQDVVEDYKKRPEEEINKRT | 3.82 |
| ELRNVQDVVEDYKKRWEEEINKRT | 2.68 |
| ELRNVQDVVEDYKKRLEEEINKRT | 4.31 |
| ELRNVQDVVEDYKKRREEEINKRT | 3.59 |
| ELRNVQDVVEDYKKRHEEEINKRT | 3.75 |
| ELRNVQDVVEDYKKRMEEEINKRT | 4.22 |
| ELRNVQDVVEDYKKRYEEEIKKRT | 4.54 |
| ELRNVQDVVEDYKKRYEEEIFKRT | 3.55 |
| ELRNVQDVVEDYKKRYEEEIMKRT | 2.79 |
| ELRNVQDVVEDYKKRYEEEITKRT | 2.89 |
| ELRNVQDVVEDYKKRYEEEIIKRT | 1.94 |
| ELRNVQDVVEDYKKRYEEEILKRT | 3.83 |
| ELRNVQDVVEDYKKRYEEEIYKRT | 3.65 |
| ELRNVQDVVEDYKKRYEEEIQKRT | 3.51 |
| ELRNVQDVVEDYKKRYEEEIRKRT | 3.92 |
| ELRNVQDVVEDYKKRYEEEISKRT | 4.27 |
| ELRNVQDVVEDYKKRYEEEIAKRT | 4.15 |
| ELRNVQDVVEDYKKRYEEEICKRT | 3.73 |
| ELRNVQDVVEDYKKRYEEEIHKRT | 4.26 |
| ELRNVQDVVEDYKKRYEEEIVKRT | 4.3 |
| ELRNVQDVVEDYKKRYEEEIGKRT | 3.77 |

| Variant | protein stability index |
| --- | --- |
| ELRNVQDVVEDYKKRYEEEIDKRT | 3.8 |
| ELRNVQDVVEDYKKRYEEEINKAT | 3.34 |
| ELRNVQDVVEDYKKRYEEEINKET | 4.63 |
| ELRNVQDVVEDYKKRYEEEINKIT | 3.72 |
| ELRNVQDVVEDYKKRYEEEINKLT | 3.63 |
| ELRNVQDVVEDYKKRYEEEINKPT | 3.56 |
| ELRNVQDVVEDYKKRYEEEINKMT | 3.03 |
| ELRNVQDVVEDYKKRYEEEINKGT | 4.1 |
| ELRNVQDVVEDYKKRYEEEINKHT | 4.09 |
| ELRNVQDVVEDYKKRYEEEINKQT | 3.83 |
| ELRNVQDVVEDYKKRYEEEINKFT | 3.71 |
| ELRNVQDVVEDYKKRYEEEINKYT | 3.98 |
| ELRNVQDVVEDYKKRYEEEINKVT | 3.93 |
| ELRNVQDVVEDYKKRYEEEINKTT | 4.69 |
| ELRNVQDVVEDYKKRYEEEINKKT | 4.2 |
| ELRNVQDVVEDYKKRYEEEINKCT | 3.84 |
| ELRNVQDVVEDYKKRYEEEINKST | 4.27 |
| ELRNVQDVVEDYKKRYEEEINKNT | 4.11 |
| ELRNVQDVVEDYKKRYEEEINKRE | 4.57 |
| ELRNVQDVVEDYKKRYEEEINKRA | 3.08 |
| ELRNVQDVVEDYKKRYEEEINKRD | 4.64 |
| ELRNVQDVVEDYKKRYEEEINYRT | 3.43 |
| ELRNVQDVVEDYKKRYEEEINWRT | 3.9 |
| ELRNVQDVVEDYKKRYEEEINIRT | 3.28 |

| Variant | protein stability index |
| --- | --- |
| ELRNVQDVVEDYKKRYEEEINNRT | 4.11 |
| ELRNVQDVVEDYKKRYEEEINTRT | 4.15 |
| ELRNVQDVVEDYKKRYEEEINART | 3.74 |
| ELRNVQDVVEDYKKRYEEEINLRT | 3.28 |
| ELRNVQDVVEDYKKRYEEEINCRT | 4.19 |
| ELRNVQDVVEDYKKRYEEEINGRT | 3.27 |
| ELRNVQDVVEDYKKRYEEEINFRT | 4.47 |
| ELRNVQDVVEDYKKRYEEEINPRT | 3.47 |
| ELRNVQDVVEDYKKRYEEEINRRT | 4.21 |
| ELRNVQDVVEDYKKRYEEEINMRT | 3.92 |
| ELRNVQDVVEDYKKRYEEEINERT | 3.43 |
| ELRNVQDVVEDYKKRYEEEINHRT | 3.68 |
| ELRNVQDVVEDYKKRYEEEINQRT | 4.35 |
| ELRNVQDVVEDYKKRYEEEINDRT | 3.57 |
| ELRNVQDVVEDYKKRYEEAINKRT | 3.94 |
| ELRNVQDVVEDYKKRYEEMINKRT | 2.73 |
| ELRNVQDVVEDYKKRYEEIINKRT | 3.39 |
| ELRNVQDVVEDYKKRYEEKINKRT | 3.21 |
| ELRNVQDVVEDYKKRYEEFINKRT | 3.36 |
| ELRNVQDVVEDYKKRYEENINKRT | 2.71 |
| ELRNVQDVVEDYKKRYEEDINKRT | 3.24 |
| ELRNVQDVVEDYKKRYEECINKRT | 3.9 |
